How the values were obtained:
Gαi1 = assay: cell-based or functional assay
Gαq/i chimera = assay: cell-based or functional assay

Row | Substance | attenuation of SRE activation (SRE-luciferase reporter, CHO-D2R cells co-transfected with Gαi1) (Gαi1) [%] | inhibition of SRE activation (SRE-luciferase reporter, all quinpirole concentrations, CHO-D2R cells) (Gαi1) [%] | reduction in quinpirole-stimulated SRE activation (SRE-luciferase reporter, 100 nM quinpirole, CHO-D2R cells) (Gαi1) [%] | reduction in SRE activation (SRE-luciferase reporter, CHO-D2R cells) (Gαq/i chimera) [%]
1 | human RGSz1 (from UniProt O76081 1-388) | 25 to 30 |  |  | 
2 | human RGS4 (from UniProt P49798 1-205) |  | > 80 | 85 | 60

Reference: patent US20030119716A1, “Methods for screening, treating and diagnosing G-protein coupled receptor-related disorders and compositions thereof” (Wyeth, priority 2001, published 2003)
